# Data from paper PMC4937444.
# Test system: MukB (Escherichia coli)
# Assay: pull-down (MU topological loading assay)
# Conditions: no ATP, 750 mM KCl wash, MU assay: low salt 25 mM KCl loading (37 °C), His-tag affinity beads, typically 7.3 pmol MukB and 100 ng DNA, SSB EMSA: HKD buffer (25 mM …)
row,Substance,binding signal (% DNA retrieved)
1,cccDNA (pUC19/pUC119),4.6
2,ldsDNA,0.6
3,pUC119 cssDNA,10.6
